Assay results reported in patent US20250076314A1 (NORDIC BIOSCIENCE A S, published 2025).
Where no end group is shown, it is not given here. The star is where a group is joined. Biotin = O=C1N[C@H]2[C@H](CS[C@H]2CCCCC(=O)*)N1

T1: Coating peptide PIQWNAPQPS-K-Biotin (human)
T1 construct: also called biotin-labelled peptide
T1 peptide: PIQWNAPQPSK(Biotin)

T2: Truncated peptide IQWNAPQPS
T2 construct: also called deselection peptide
T2 peptide: IQWNAPQPS

T3: Elongated peptide HPIQWNAPQPS
T3 construct: also called deselection peptide
T3 peptide: HPIQWNAPQPS

T4: Nonsense peptide LHDSNPYPRR
T4 construct: also called nonsense selection peptide; deselection peptide
T4 peptide: LHDSNPYPRR

T5: Nonsense coating peptide LHDSNPYPRR-K-Biotin
T5 peptide: LHDSNPYPRRK(Biotin)

B1: FN-ANA monoclonal antibody (mAb raised against the FN-ANA neoepitope sequence …) (antibody, mouse IgG1, kappa, V domains shown)
VH: QVQLQQSGAELVRPGASVKLSCKALGYTLTDYEMHWVKQTPVHGLEWIGAIHPGRGAAAYNQKFKDKATLTADKSSSTAYMELSSLTSEDSAVYYCTRSEEYGNYEDAMDYWGQGTSVTVSS
VL: DVVMTQTPLSLPVSLGDQASISCRSSQSLVHSNGNTYLHWFLQKPGQSPKLLIYKVSNRFSGVPDRFSGSGSGTDFTLKISRVEAEDLGVYFCSQSTHVPYTFGGGTKLEIKR
modifications: antibody labeled with HRP (site not stated)
notes: Mouse IgG1/kappa from a hybridoma, purified and HRP-labelled for the assay; also called FN-ANA mAb; FN-ANA antibody
B2: Selection peptide PIQWNAPQPS (peptide)
peptide: PIQWNAPQPS
notes: Synthetic peptide from Genscript

What was measured:
[1] = biological target: B2; assay: competitive ELISA, colorimetric detection
[2] = biological target: T1, Coating peptide PIQWNAPQPS-K-Biotin; assay: competitive ELISA, colorimetric detection
[3] = biological target: T2, Truncated peptide IQWNAPQPS; assay: competitive ELISA, colorimetric detection (OD 450 nm), two-fold diluted peptides
Experimental: (§1) No. 655995, Greiner Bio-one, Taufkirchen, Germany), whereafter it was incubated for 30 minutes at 20° C. with 300 RPM orbital shaking. After incubation, the plate was emptied and washed 5 times in washing buffer (consisting of 25 mM Tris, 3.0 g/L NaCl, 0.1% (w/v) Tween-20, pH 7.2). A 10-point calibration curve with 2-fold dilution was prepared from a start concentration of 200 ng/ml selection peptide ([…] (SEQ ID NO: 1)) in incubation buffer (50 mM TBS-BTB, 4.0 g/L NaCl, 0.20 g/L KCl, 5% Liquid II (cat. No. 11941836001, Roche), pH 8.0). 20 μL/well of standards, assay controls, and serum samples were added to appropriate wells in double determinations followed by the addition of 100 μL/well of 6 ng/ml of HRP-labelled mAb in incubation buffer, whereafter plates were incubated at 4° C. for 20 hours with 300 RPM orbital shaking. The following day, chemiluminescence substrate (cat. No. 11582950001, Roche Diagnostics) was prepared according to manufacturer's instructions and mixed by rotation in the dark for 20 minutes at room temperature prior to plate analysis. Following a washing step, 100 µL/well of chemiluminescence substrate was added, and the plate was incubated for a total of 3 minutes in darkness with 1 minute of 300 RPM orbital shaking before detection with luminescence on a SpectraMax i3x microplate reader (Molecular Devices, Sunnyvale CA, USA) at 1 second integration time at all wavelengths as microplate reader settings. […]
(§2) Antibody specificity was evaluated using the synthetic peptides and determined as a percentage of signal inhibition of two-fold diluted selection and deselection peptides (elongated, truncated, and nonsense) in addition to a non-sense coating (peptide details are listed in Table 1) using a colorimetric detection method with 96-well streptavidin-coated microtiter plate (cat. No. 11940279, Roche Diagnostics, Hvidovre, Denmark) and using the above procedure with the following exceptions: Instead of adding chemiluminescent substrate, the colorimetric substrate 3,3′,5,5′-tetramethylbenzidine One (cat. […]

[4] = biological target: T3, Elongated peptide HPIQWNAPQPS; assay: as above
Experimental: as §1, §2

[5] = biological target: T4, Nonsense peptide LHDSNPYPRR; assay: as above
Experimental: as §1, §2

[6] = biological target: T5, Nonsense coating peptide …; assay: ELISA with the nonsense coating peptide on a streptavidin plate, colorimetric detection (OD 450 nm)
[7] = biological target: B1; assay: competitive chemiluminescent ELISA, ten independent runs: selection peptide competes with plate-bound coating peptide …-K-biotin for HRP-labelled mAb; 20 h at 4 C
Experimental: The final FN-ANA assay parameters were determined empirically by several optimizing experiments where various reagents, concentrations, incubation time and temperature were investigated in addition to testing reactivity to selection and deselection peptides (Table 1) and human sera. The final FN-ANA competitive ELISA procedure was conducted with chemiluminescence detection and determined as follows: 100 μL of 3 ng/ml coating peptide ([…]-K-biotin (SEQ ID NO: 5)) in coating buffer (50 mM tris-buffered saline (TBS) with 1% (w/v) bovine serum albumin, 0.1% (w/v) Tween-20, and 0.36% (v/v) Bronidox (BTB), 4 g/L NaCl, 0.20 g/L KCl, pH 8.0) was added to each well in a 96-well streptavidin-coated microtiter white plate (cat. No. 655995, Greiner Bio-one, Taufkirchen, Germany), whereafter it was incubated for 30 minutes at 20° C. with 300 RPM orbital shaking. After incubation, the plate was emptied and washed 5 times in washing buffer (consisting of 25 mM Tris, 3.0 g/L NaCl, 0.1% (w/v) Tween-20, pH 7.2). […] Following a washing step, 100 µL/well of chemiluminescence substrate was added, and the plate was incubated for a total of 3 minutes in darkness with 1 minute of 300 RPM orbital shaking before detection with luminescence on a SpectraMax i3x microplate reader (Molecular Devices, Sunnyvale CA, USA) at 1 second integration time at all wavelengths as microplate reader settings. […]

| binding result [1] | binding result [2] | binding result [3] | binding result [4] | binding result [5] | binding result [6] | IC50 [7] | Binder |
| --- | --- | --- | --- | --- | --- | --- | --- |
| binds | binds | no binding | no binding | no binding | no binding | – | B1 |
| – | – | – | – | – | – | 8.86 ng/mL | B2 |
